Target: recombinant human IFNγ (human) (UniProt P01579)
Experiment: cell-based or functional assay

recombinant human IFNγ (human), sequence (P01579 24-166 limits assumed): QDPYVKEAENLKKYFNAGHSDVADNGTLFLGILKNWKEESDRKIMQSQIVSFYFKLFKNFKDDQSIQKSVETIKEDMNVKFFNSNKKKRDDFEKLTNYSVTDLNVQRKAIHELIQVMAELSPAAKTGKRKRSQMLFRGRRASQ

- MHC II Inhibition Cell-Based Assay IC50: 400 pM
Substance: R&D Systems mouse anti-human IFNγ antibody MAB285

Reference: patent publication US20100158922A1
